The values below come from patent US20250263489A1.

Positions count from the first letter of the chain named.

First the molecules themselves.
B1: IGF11-16 with alanine substitution of W at position 32 (CDR-L1) (antibody, V domains shown)
VH: QIQLQQPGAELVKPGASVKLSCKAPGYTFTSYWMHWVKQRPGQGLEWIGETNPSNSVTNYNEKFKSKATLTVDKSSSTAYMQLSSLTSEDSAVYYCTIGRGRGFAYWGQGTLVTVSA
VL: DIQMNQSPSSLSASLGDTITITCRASQNINFALSWCQQKPGNIPKLLIYKASNLHTGVPSRFSGSGSGTDFTLTISSLQPEDIATYYCLQGQSYPYTFGGGTKLEIK
B2: IGF11-16 with alanine substitution of N at position 55 (CDR-H2) (antibody, mouse IgG1, V domains shown)
VH: B1 VH with N55A
VL: B1 VL with A32W
B3: IGF11-16 with alanine substitution of N at position 52 (CDR-H2) (antibody, mouse IgG1, V domains shown)
VH: B1 VH with N52A
VL: B1 VL with A32W
B4: IGF11-16 with alanine substitution of F at position 64 (CDR-H2) (antibody, mouse IgG1, V domains shown)
VH: B1 VH with F64A
VL: B1 VL with A32W
B5: IGF11-16 with alanine substitution of E at position 50 (CDR-H2) (antibody, mouse IgG1, V domains shown)
VH: B1 VH with E50A
VL: B1 VL with A32W
B6: IGF11-16 with alanine substitution of S at position 54 (CDR-H2) (antibody, mouse IgG1, V domains shown)
VH: B1 VH with S54A
VL: B1 VL with A32W
B7: IGF11-16 with alanine substitution of H at position 35 (CDR-H1) (antibody, mouse IgG1, V domains shown)
VH: B1 VH with H35A
VL: B1 VL with A32W
B8: IGF11-16 with alanine substitution of W at position 33 (CDR-H1) (antibody, mouse IgG1, V domains shown)
VH: B1 VH with W33A
VL: B1 VL with A32W
B9: IGF11-16 with alanine substitution of R at position 102 (CDR-H3) (antibody, mouse IgG1, V domains shown)
VH: B1 VH with R102A
VL: B1 VL with A32W
B10: IGF11-16 with alanine substitution of N at position 59 (CDR-H2) (antibody, mouse IgG1, V domains shown)
VH: B1 VH with N59A
VL: B1 VL with A32W
B11: IGF11-16 with alanine substitution of S at position 56 (CDR-H2) (antibody, mouse IgG1, V domains shown)
VH: B1 VH with S56A
VL: B1 VL with A32W
B12: humanized antibody hIGF25_PS (antibody, V domains shown)
VH: QVQLVQSGAEVKKPGASVKVSCKAPGYTFTSYWMHWVRQAPGQGLEWMGETNPSSSVTNYAQKFQGRVTLTVDTSTSTAYMELSSLRSEDTAVYYCTIGRGRGFAYWGQGTLVTVSS
VL: B1 VL with N5T, L15V, T18R, I19V, A32W, C36Y, N42K, I43V, I83V
B13: humanized antibody hIGF13_PS (antibody, V domains shown)
VH: B12 VH with V93T
VL: B1 VL with N5T, L15V, T18R, I19V, A32W, C36Y, N42K, I43V, I83V
B14: mouse parent antibody IGF11-16 (antibody, mouse IgG1, kappa, V domains shown)
VH: B1 VH
VL: DIQMNQSPSSLSASLGDTITITCRASQNINFWLSWCQQKPGNIPKLLIYKASNLHTGVPSRFSGSGSGTDFTLTISSLQPEDIATYYCLQGQSYPYTFGGGTKLEIKR

The target in the first experiment is recombinant human IGF-1 receptor histidine tag (305-GR-050, R&D SYSTEMS) (human) (UniProt P08069). The experiment can be described thus: antigen ELISA, plate-coated human recombinant IGF-1R, antibody at 5 nM, relative to IGF11-16. A general note: An ELISA detects its analyte on a solid surface through an enzyme-linked reagent.
B1: the Binding @5 nM vs IGF11-16 (% vs IGF11-16) was determined as 14.
Consider B2, for which the Binding vs IGF11-16 (EC50) (% vs IGF11-16) came out at 94.
For B3, the Binding vs IGF11-16 (EC50) (% vs IGF11-16) came to 21.
For the molecule B4, the Binding vs IGF11-16 (EC50) (% vs IGF11-16) turned out to be 84.
Consider B5, for which the Binding vs IGF11-16 (EC50) (% vs IGF11-16) amounted to 9.
For the molecule B6, the Binding vs IGF11-16 (EC50) (% vs IGF11-16) came out at 97.
Consider B7, for which the Binding vs IGF11-16 (EC50) (% vs IGF11-16) amounted to 49.
In the case of B8, the Binding vs IGF11-16 (EC50) (% vs IGF11-16) worked out at 9.
Turning to B9, the Binding vs IGF11-16 (EC50) (% vs IGF11-16) was 9.
For the molecule B10, the Binding vs IGF11-16 (EC50) (% vs IGF11-16) came out at 112.
Regarding B11, the Binding vs IGF11-16 (EC50) (% vs IGF11-16) is 108.

Another experiment has the same target. Kind of experiment: SPR, Biacore T200, 40 C, IGF-1R-His captured by anti-histidine-tag antibody, antibody as analyte, single cycle kinetics, 1:1 Binding model.
As to B12, the Kd turned out to be 0.051 nM, the dissociation rate constant (koff) was 0.000135 s⁻¹ and the kon came to 2.87e+06 M⁻¹ s⁻¹.
In the case of B13, the Kd was 0.0578 nM, the dissociation rate constant (koff) is 0.000158 s⁻¹ and the kon came out at 2.85e+06 M⁻¹ s⁻¹.
For B14 the same measures were 0.0314 nM, 7.72e-05 s⁻¹ and 2.67e+06 M⁻¹ s⁻¹.

The target is the same in another experiment. The experiment can be described thus: SPR, Biacore T200, summary sentence of Table 16. (In general: Surface plasmon resonance follows binding to a sensor surface in real time, without labels.)
As for B12, the dissociation constant (Kd) was less than 0.1 nM.
As for B13, the Kd was less than 0.1 nM.

In general, Kd refers to the free concentration of one partner at which half of the binding sites on the other are occupied at equilibrium, for simple one-to-one binding. As a reminder, the koff is the first-order rate constant of dissociation. One may read the kon as the rate constant with which the complex forms.
